For one assay, the target named is NS2-EGFP (canine parvovirus nonstructural protein 2 fused to EGFP) (canine parvovirus (CPV) type 2). As to the kind of experiment: proximity ligation; PLA (Duolink In Situ Orange Mouse/Rabbit) in noninfected HeLa cells transfected with NS2-EGFP, fixed 20 h after transfection; anti-GFP paired with an antibody against the host protein; nuclear PLA foci counted from 3D confocal data, n = 15.
“core histone macro-H2A.1 (from UniProt O75367 1-369) (natural protein)” came in with a PLA foci/nucleus (PLA foci/nucleus) of 135.
On the same count and under the same terms, next, “nucleosome-remodeling helicase matrix-associated actin-dependent regulator of chromatin A5 (from UniProt O60264 1-1052) (natural protein)”: 55.
On the same count and under the same terms, next, “structure specific recognition protein SSRP1 (FACT complex subunit) (from UniProt Q08945 1-709) (natural protein)”: 7.5.

A further assay deals with Canine parvovirus nonstructural protein 2 (NS2), made in infection (canine parvovirus (CPV) type 2). As to the kind of experiment: proximity ligation; PLA (Duolink In Situ Orange Mouse/Rabbit) in wt CPV-infected NLFK cells, fixed 24 h after infection; anti-NS2 antibody paired with an antibody against the host protein; nuclear PLA foci counted from 3D confocal data, n = 15.
“MDC1 of NLFK (feline kidney) cells (natural protein)” had a PLA foci/nucleus (PLA foci/nucleus) of 22.
Consider “SMARCA5 of NLFK (feline kidney) cells (natural protein)”, for which the PLA foci/nucleus (PLA foci/nucleus) is 6.5.
Still for that read-out and setting: next, “SSRP1 of NLFK (feline kidney) cells (natural protein)”: 3.7.
On to “macro-H2A.1 of NLFK (feline kidney) cells (natural protein)”, for which the PLA foci/nucleus (PLA foci/nucleus) worked out at 40.

The values above are taken from article PMC9020740.
